Laboratory results taken from patent US20100266598A1.

Tests used:
[1] = molecular target: Rhesus CCR5 (Rhesus Macaque); experiment: cell-based or functional assay
[2] = molecular target: human CCR5 (human) (UniProt P51681); experiment: cell-based or functional assay

Row | Substance | % Inhibition, Rhesus PBMC (#810) x 12E1/SIV239, inhibitor at 20 µg/ml [1] | No. of Syncytia, Rhesus PBMC (#810) x 12E1/SIV239, inhibitor at 20 µg/ml [1] | % Inhibition, PM1 x 12E1/BaL, inhibitor at 20 µg/ml [2] | CCR5-tropic virus neutralization (percent inhibition of p24) at 50 µg/ml [2] | IC50 of PBMC infection by BaL, JR-CSF and 92US657 [2] | No. of Syncytia, PM1 x 12E1/BaL, inhibitor at 20 µg/ml [2] | % Inhibition, Rhesus PBMC (#810) x 12E1/SIV239, inhibitor at 25 µg/ml [1] | No. of Syncytia, Rhesus PBMC (#810) x 12E1/SIV239, inhibitor at 25 µg/ml [1] | % Inhibition, PM1 x 12E1/BaL, inhibitor at 25 µg/ml [2] | No. of Syncytia, PM1 x 12E1/BaL, inhibitor at 25 µg/ml [2]
1 | monoclonal antibody (mAb) 2D7 | 4% | 258 syncytia | 99% | 82 to 93% | 2 to 4 µg/mL | 5 syncytia | – | – | – | –
2 | pre-immune rabbit IgG (antibody) | – | – | – | – | – | – | 0% | 285 syncytia | 0% | 487 syncytia
